Laboratory results as given in the DeepSol protein solubility set.

assay: soluble on expression in E. coli; label from the status in PepcDB or PDB records

| Sequence | soluble on expression in E. coli |
| --- | --- |
| MNRIYLYLLIVLILAGCSSPGGRYDMSDDQAPDTPLSVEHIEDAHPQYEPYSFGGNKDYNLRGKSYRIIKNPKGFTESGKASWYGKKFHGHLTSNGEIYDMYSMTAAHKTLPIPSYVKVTNTDNGKSTVVRVNDRGPFHDGRIIDLSYAAAYKIGVVQAGTANVRIEVITVDKPTKPRPKSKNNALEYVIQVVSSQHIERVRTLAQNLGQNLSAPSFVESTNNTHRLFLGPFTDDDLTQTLLEQVKSAGYDSAFIKTINKRAK | not soluble |
| MNSAHRSSLKKRPGPQDDRRVSFASPVSSSQKTAAVTVAAQTKQPAKAKNLRTMHSTPKKSKPAHDVADIISLVSKQSDILDDVSEIEHKMIKQAKMTQDLTMELANSIERIANMALAESKLSDQMEKQSKKLISLEGKTKELVEKANNWSKTLENRVDARSHHSTCLNDVQAAIKIINNAKINNDGFSEDFSAHYDKLLDLVETLEPWADKL | soluble |
| MNSNANNTPIAIGISQVFPCSYLDGQQEQLLVIQEETLDPILFERLLAIGFRRSGSAIYKPRCPRCSACQPIRVPIQEFVPSKRQKRTLAHNRDLTWRITTEHTETQYALYEKYIRERHFDGPMYPPSKAQYEQFLFCHWLPPTFIEVYDDNRLVAVAVTDTLPNSFSAIYSYFDPDEERRSLGVLLILLQCRLAKLQGKAFLYLGYQIDANRKMSYKRLYRPYQILTHQGWEYSQVCLEHHHHHH | not soluble |
| MNSNEDIHEERIEVPRTPHQTQPEKDSDRIALRDEISVPEGDEKAYSDEKVEMATTNASSNFGSNESAKDGESIGAFSNPHEALMQSKLREESQSKTILPSDDLSQQLETEESKVEEALKRITSPPLPPRADCIEESASALKSSLPPVLAGNKNDQAPLDRPQLPPRQVVNAETLHLKAPHGNATPSKSPTSAVGNSSSSTPPTLPPRRIEDPLDLAAQKHFLASTFKRNMLFYKSEDNSIKCDLDKNILNLKEDSKKINNNEIPEEVSSFWLKVIGDYQNILINDIETLHFQLSRGIPAAYRLVVWQLVSYAKSKSFDPIYETYLTEMAPFDVQEFENQLKMMDEVPSEYVKRISNVLKAYLLFDPECEFSTDIAYIINMILDVCEEEANAFGLLVRLMKVYGLRLLFLPSASEIDILCYKFDRLVEEFYPEIHNHMVEKGVRSSMFLPGFFTTLFQKKLPTEIQPRIGDMVFLEGIDSIMRILATLLSNSRDHLLKMGFDDMLELLKSGLLDAYIKQNDGTRGDTLLSNECMDKLLQDSMMKVAITPKTMKKYSSEYEEIHRLDNEKEVQYKSITEKNLHLQKHVRKLENDYTSLNREHVTIANELVKNRLNIESVLNENNGYKLQILDLKKKLDSEKKKQVLGVYVPNDLKKDLEETMKKNTQVMDENLKLQDRISELERLIEEIKTANKNGTLFEYSNSKNNPLGAGWSGFKKVFK | soluble |
| MNSSTENVTLKLKSEQLDIAKQWIQTEDVKAYKETSSIQKTFTIPVEREELVIEKIPTASDDKKEVIRIPLSEEEVNFSKHRIILEDVSIYKNQIEDVRHIEETLKKENPKIETFGNAKVIKKLEHHHHHH | not soluble |
| MNSVSEPVPSHGKKPPKNVLAEHGGWKILRILLVSTYKDFRNERRAVLDLVENKLQPIASEKHVILQVEDFSWGSKAHLEEASSLYLIERLCREAVSSSSYFYLHFLGECSGYILDPNFTDQSFLRQHSISTGQSFSEVFLQLSGLQNEKSLFLYRNPSFHQELPFNVTHFIDGPVNRERAKYLTTMVRGEAPASKFIEYSVRTSGINNIHFKHIMFDELSGITKPIEAMVGKYLEKLPDGEAGIPSVEEFMNEYYSQLHVNQTIMSKIEYNLKSHKSILLVGDYCTGKTSILHRIQWKYRDAVIVQAKEKMSAIELRRAIEAKTNVILHDVEQKVVRYLLVDDIHLNFCENFKVKITLSQILQNFNCFAQIFSLLKQIFINFFQASKEAQQYLIGNEELVIVATSRKKKLEVDMNRIIIPHLEPEDILDELSFWLNGGEKEKSGVPSVKASNILKMSQQKRRRSIGTVEDGHQPDENIGWNSLKCRVIGTLGRIGSSDEKCAQLAQLSTLSVVEADMCLMESDGKGHLLIATLCYLTIVESGLNEMELRSLLILEYNLLPIAIRRNYKNLPFDYCPDEFGTTSCTQTLPLRWYFVLHRLGHLFMKIDGDSNHFVLPSACRRVVFKKYLKHPHNLEHFKKNFKEFLTNFSGKEWNRNRQIKMYL | not soluble |
| MNTEICSILERQARIFNVQKYSLYDGPGIRTLIFFKGCPLRCKWCSNPEGLERKYQVMYMEDSCIHCGNCIPVCPVNIHSFANRDGETVPTHYEPPKHTINRNIDCVGCRKCETICPKKALSIAGKDLKISEVLEIIQQDALFYLSSGGGVTLGGGEVTAQPEFATNLLMECQRMGINTAIETCGYAKLDTLLMIAQFTDLFLYDLKHIDPERHYELTGVRNERILDNLTELIHRGFNIKIRMPLIRGMNDSQDTIRRTMEFLQPFSSCKNFQGIDLLPYHKLGINKYKQLDMNYTITEDLSFKAEELDEIARIIGGYDLRAAVIRH | not soluble |
| MNTVPFTSAPIEVTIGIDQYSFNVKENQPFHGIKDIPIGHVHVIHFQHADNSSMRYGYWFDCRMGNFYIQYDPKDGLYKMMEERDGAKFENIVHNFKERQMMVSYPKIDEDDTWYNLTEFVQMDKIRKIVRKDENQFSYVDSSMTTVQENELLKSSLQKAGSKMEAKNEDDPAHSLNYTVINFKSREAIRPGHEMEDFLDKSYYLNTVMLQGIFKNSSNYFGELQFAFLNAMFFGNYGSSLQWHAMIELICSSATVPKHMLDKLDEILYYQIKTLPEQYSDILLNERVWNICLYSSFQKNSLHNTEKIMENKYPELLGKDNEDDALIYGISDEERDDEDDEHNPTIVGGLYYQRP | soluble |
| MNTYFDIPHRLVGKALYESYYDHFGQMDILSDGSLYLIYRRATEHVGGSDGRVVFSKLEGGIWSAPTIVAQAGGQDFRDVAGGTMPSGRIVAASTVYETGEVKVYVSDDSGVTWVHKFTLARGGADYNFAHGKSFQVGARYVIPLYAATGVNYELKWLESSDGGETWGEGSTIYSGNTPYNETSYLPVGDGVILAVARVGSGAGGALRQFISLDDGGTWTDQGNVTAQNGDSTDILVAPSLSYIYSEGGTPHVVLLYTNRTTHFCYYRTILLARAVAGSSGWTERVPAYSAPAASGYTSQVVLGGRRILGNLFRETSSTTSGAYQFEVYLGGVPDFESDWFSVSSNSLYTLSHGLQRSPRRVVVEFARSSSPSTWNIVMPSYFNDGGHKGSGAQVEVGSLNIRLGTGAAVWGTGYFGGIDNSATTRLATGYYRVRAWI | soluble |
| MNVGDVVKGEVLAIDDDKQVIVGIQGTGVEGVVPLKELSTQRVDDVNEAAKVGDVLDLVVISRIGSDKENGSYLLSHRRLEARKVWDDVEKEYEAGHTIKAPVTQVVKGGLVVDAGVRGFIPASMIDDHYVEDLNAYKGQELELKIIEIEPSENRLILSHRAVVEKQREALEHHHHHH | soluble |
| MNVGYLCTYTPKELIDAAGFTPIRIFAGDMQISLATAHIQSYACSQARGSLERALRGELDVQAVVFTRCCDTLMRLADIWERNTDMRVYNIEFPTRVEERSKDYYFNELKDFVKVLEEWGGGVTLESLRESLKLYHELEEKLKRLFSLKPDYEAAKRVQEMNVREAIKFVDERLRKAESEGGKPRVLITGSVCPFVEVYTLFEEAGFALKDDICTGTRFFTFNTPPREIGSVDEGLRFLVDKYFEKAPCPTKHFPNDDRFKYILEMAKDCDGVVFLLLKFCEPHFYDYPQLKERLEEMGKKVLLLELEFPIASIEQLRTRIEAFYEVIA | not soluble |
| MNVIEGVVATPNARVAIAIARFNNFINDSLLDGAIDALKRIGQVSDDNITVVWVPGAYELPLVANVLAKTNRYDAVIALGTVIRGGTAHFEYVAGEASSGLSSVAMNSDIPVAFGVLTTESIEQAIERAGTKAGNKGAEAALTALEMINVIKAIKG | not soluble |
| MNVIVEISDRLGMDYYFVSVTTTAKSLQLNSPKKYYKIWHQEIPYHQITEWHLTQQEDIQEISFAWQETFYRFVDYGTGIVPYLTQFCKVMR | not soluble |
| MNVTRKKGPLYLQIKNIIRDRILHGVYAIHTNIPSEPQLEEEFKVSKITVRNAIKELAQEGYLEKKSGKGTKVIRNTSATKLSKGKKFTEVLVEEGYKVQKKLLKAEIVHNEEGTVPFRLFGKESFRIERLYTLNDAPYIHYTHYFSAHMASTDLSDFDLQSLYDLVEDRGIHLENFRDEFAVGLAPSFVAEALGEKEGTALLKRMRYSYDEVGEVIEYSEGYYNTEMQHYVVNYDV | not soluble |
| MNVTSKPGELVPESDVAAIMRGTHGDPFRVLGMHGGGGAPLSVRVFAPQAAEVAVLGQGGEVLAPLERIGAEGFFAGTVPGEEKFPYRLRFVSGPHEWEADDPYRFPEVLG | not soluble |
